Sequences and labels used below:
B1: recombinant human TNFβ (ligand, UniProt P01374 35-205, looked up)
chain: LPGVGLTPSAAQTARQHPKMHLAHSTLKPAAHLIGDPSKQNSLLWRANTDRAFLQDGFSLSNNSLLVPTSGIYFVYSQVVFSGKAYSPKATSSPLYLAHEVQLFSSQYPFHVPLLSSQKMVYPGLQEPWLHSMYHGAAFQLTQGDQLSTHTDGIPHLVLSPSTVFFGAFAL
B2: humanized scFv 16-02-B03-sc02 (scFv)
scFv: MDIQMTQSPSSLSASVGDRVTITCQSSQSVYSSNLAWYQQKPGKAPKLLIYSASKLASGVPSRFSGSGSGTDFTLTISSLQPEDEATYYCQGTYYTSNWLNAFGGGTKLTVLGGGGGSGGGGSGGGGSGGGGSEVQLVESGGGLVQPGGSLRLSCAASGIDLSSYAMGWVRQAPGKGLEWIGTISVGGSTYYANWAEGRFTISRDNSKNTVYLQMNSLRAEDTAVYYCAGGDYINFFYFNIWGQGTLVTVSS
notes: CDR graft on a Vκ1/VH3 scaffold; also called 16-02-B03-sc02 (CDR); 16-02-B03-sc02-scFv

Experiment [1] concerns the target B2. As to the kind of experiment: competition ELISA: scFv coated, biotinylated TNFα, unlabeled TNFβ or TNFα as competitor. The source says:
(§1) The quality of recombinant human TNFβ has been analyzed 1) for purity by SDS-page and HPLC analysis, and 2) for biological activity in the mouse L929 cytotoxicity assay, by the manufacturer of the protein.
On the technique in general: In an ELISA, binding on a coated surface is turned into a signal by an enzyme label.

Experiment [2] deals with B2. As to the kind of experiment: competition ELISA: scFv coated, biotinylated TNFα 75 ng/mL, unlabeled TNFβ as competitor.
Source text: as §1

Experiment [3] has as its target T1, recombinant human TNFα (human, UniProt P01375 77-233).
T1 construct: also called TNFα trimer; biotinylated TNFα
Description: inhibition ELISA; biotinylated TNFα 960 pM pre-incubated with scFv; competitor TNFRI-Fc coated.

The experiment “recombinant human TNFβ” concerns the target B1. Description: competition ELISA: scFv coated, biotinylated TNFα, unlabeled TNFβ as competitor. How it is done:
To control precision of the response, the dose-response curves was analyzed in duplicate.

In experiment [4] the target is T1, recombinant human TNFα. As to the kind of experiment: cell-based or functional assay.
Experiment [5] has as its target T2, Rhesus monkey TNFα (Rhesus monkey (Macaca mulatta), UniProt P48094 77-233). As to the kind of experiment: cell-based or functional assay.
In experiment [6] the target is T3, recombinant Cynomolgus monkey TNFα (Cynomolgus monkey (Macaca fascicularis), UniProt P79337 77-233). As to the kind of experiment: cell-based or functional assay.
T3 sequence (P79337 77-233 limits assumed): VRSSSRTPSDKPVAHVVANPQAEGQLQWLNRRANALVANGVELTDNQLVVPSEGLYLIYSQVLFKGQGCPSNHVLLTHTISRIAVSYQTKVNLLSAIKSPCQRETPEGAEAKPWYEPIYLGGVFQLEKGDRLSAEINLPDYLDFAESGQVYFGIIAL
The target in experiment [7] is T1, recombinant human TNFα. Description: SPR (MASS-1); TNFα amine-coupled on chip, scFv injected 45-1.4 nM. How it is done:
(§2) In a second step, Single Injection Cycle Kinetics (SiCK) were measured from a single injection cycle by simultaneously injecting six analyte samples at different concentrations into each of the eight parallel channels in the MASS-1 system. […] The apparent dissociation (kd) and association (kₐ) rate constants and the apparent dissociation equilibrium constant (KD) were calculated with the MASS-1 analysis software (Analyzer, Sierra Sensors) using one-to-one Langmuir binding model and quality of the fits was monitored based on Chi², which is a measure for the quality of the curve fitting. The smaller the value for the Chi² the more accurate is the fitting to the one-to-one Langmuir binding model. For affinity screenings, results were deemed valid if the Chi² was below 10 for the concentration analyzed. In cases where several scFv concentrations were analyzed, results were deemed valid if the average Chi² over all the concentrations tested was below 10.

The target of experiment [8] is T2, Rhesus monkey TNFα. The description is as above. How it is done: as §2
The target of experiment [9] is T3, recombinant Cynomolgus monkey TNFα. The experiment is described as above. How it is done:
as §2

In experiment [10] the target is T1, recombinant human TNFα. Description: inhibition ELISA; biotinylated TNFα 960 pM pre-incubated with scFv; competitor TNFRII-Fc coated. How it is done: For the second inhibition ELISA, the extracellular domain of TNFRII fused to the Fc region of human IgG (R&D Systems, Cat. No. 726-R2) was coated at a concentration of 2 μg/mL. All subsequent steps were identical for both assays.

Where only a bound is given, the exact number is not on record here.

As usually defined, the IC50 is the concentration that gives 50% inhibition. One may read the Kd as the free concentration of one partner at which half of the binding sites on the other are occupied at equilibrium, for simple one-to-one binding. What is called koff is the first-order rate constant of dissociation. By kon is commonly meant the second-order rate constant of association.

T2 sequence (P48094 77-233 limits assumed): as the sequence (P79337 77-233 limits assumed) above, with V37L counted along it
T1 sequence (P01375 77-233 limits assumed): as the sequence (P79337 77-233 limits assumed) above, with V37L, T44R, N72T, L138R counted along it

B1: in experiment [1], the “Target selectivity, rel. IC50 of TNFβ vs TNFα” value is > 10000 fold. The IC50 in [2] was > 1250 µg/mL.
Take B2: the IC50 in the experiment with recombinant human TNFα [3] was determined as 0.0737 µg/mL; with recombinant human TNFα [10] it was 0.0795 µg/mL. For the same molecule, in the experiment with recombinant human TNFβ, the binding result is recorded as “no binding (tested: 1250 µg/mL)”. In addition, the “Potency (L929 assay), rel. IC50 (IC50,Infliximab/IC50,scFv, ng/mL)” value in the experiment with recombinant human TNFα [4] was 1.7. The “Species-specificity IC50 [ng/mL], human (L929 assay)” value with recombinant human TNFα [4] amounted to 6.9 ng/mL. Moreover, the “Species-specificity IC50 [ng/mL], rhesus (L929 assay)” value in the experiment with Rhesus monkey TNFα [5] came to 71.8 ng/mL. In addition, the “Species-specificity IC50 [ng/mL], cyno (L929 assay)” value in [6] was 99.3 ng/mL. Also, the values for the Kd (with recombinant human TNFα [7]; in the experiment with Rhesus monkey TNFα [8]; in experiment [9]) were 0.16 nM, 1.6 nM and 1.1 nM, respectively. Further, the values for the koff (with recombinant human TNFα [7]; with Rhesus monkey TNFα [8]; in experiment [9]) were 6.6e-05 s⁻¹, 0.00022 s⁻¹ and 0.00021 s⁻¹, respectively. Also, the results for the kon (in the experiment with recombinant human TNFα [7]; with Rhesus monkey TNFα [8]; in experiment [9]) were 410000 M⁻¹ s⁻¹, 130000 M⁻¹ s⁻¹ and 180000 M⁻¹ s⁻¹, respectively.

The record behind these values is US20190194310A1 (NUMAB INNOVATION, published 2019).
